Experimental data taken from US12605469B2, “Tumor specific antibody conjugates and uses therefor” (The University of North Carolina at Charlotte, priority 2019, dated 2026).
Numbering of substitutions follows the chain as printed.

Tests used:
KCM pancreatic cell line = test: binding to KCM pancreatic cell line; assay type: cell-based, mouse
Description: FIG. 3 is a schematic (upper left panel) showing an approach for creating a triple transgenic mouse line that expresses the Cre recombinase throughout the pancreas, a mutated K-ras oncogene polypeptide, and a human MUC1 polypeptide. This mouse develops pancreatic adenocarcinoma, cells of which were used to generate the primary tumor cell line KCM (lower panel). The KCM cell line was used to test the binding of an exemplary antibody of the presently disclosed subject matter (denoted in the Figure as “TAB” and in the instant disclosure as “TAB-004”) either alone or conjugated to CpG oligodeoxynucleotides (CpG ODN).
(§1) The TAB-004 antibody alone or conjugated to CpG ODN bound to a tumor cell line (referred to herein as the “KCM” cell line; see FIG. 3) generated from the triple transgenic PDA.MUC1.Tg mice.

KCM tumor = test: in vivo anti-tumor activity against established KCM tumor; design: species or system mouse
Procedure: FIG. 5A is a line graph showing the measured tumor volumes (in mm measured by digital calipers) in mice treated with phosphate-buffered saline (PBS) alone (negative control; filled squares), CpG ODN alone (X's), the unconjugated TAB-004 antibody (open circles), or the TAB-004-CpG ODN conjugate (filled circles). FIG. 5B is a bar graph showing the changes in tumor volumes in mice at 19 and 27 days after the final treatment was administered. […] PBS alone (negative control; white bars); CpG ODN alone (hatched bars); unconjugated TAB-004 antibody (black bars); TAB-004-CpG ODN conjugate (cross-hatched bars). […] The treatment groups and the schedule and dose were as illustrated in FIGS. 5A and 5B. Briefly, 3×10^6 KCM tumor cells were administered subcutaneously into the flank region of mice (n=10 mice) at day 0. At days 4, 10, and 16, 50 μg of a TAB-004-CpG ODN conjugate were administered intratumorally (without adjuvant) to each mouse. The same amounts of antibody were administered to an antibody alone group (unconjugated TAB-004) for comparison. Mice were sacrificed at day 20 and tumors recovered.

KCM tumor cells = test: NK cell specific lysis of tumor cells; assay type: cell-based, mouse; settings: various E:T ratios
Description: FIGS. 4A and 4B are graphs showing that an exemplary antibody of the presently disclosed subject matter (TAB-004) enhanced the cytotoxicity of Natural Killer (NK) cells to kill target tumor cells.
as §1

KCM lysate = molecular target: T1, KCM lysate (Homo sapiens, UniProt P15941); test: sandwich ELISA of humanized TAB004 antibodies on KCM lysate; assay type: binding, mouse; settings: compared with chimeric parental antibody
T1 construct: expressed in transfected cells; host or cells: KCM, a primary mouse pancreatic adenocarcinoma line from P48-Cre x LSL-Kras G12D x human MUC1.Tg mice; whole-cell lysate at 10 ug/mL
T1 sequence (P15941 24-1255): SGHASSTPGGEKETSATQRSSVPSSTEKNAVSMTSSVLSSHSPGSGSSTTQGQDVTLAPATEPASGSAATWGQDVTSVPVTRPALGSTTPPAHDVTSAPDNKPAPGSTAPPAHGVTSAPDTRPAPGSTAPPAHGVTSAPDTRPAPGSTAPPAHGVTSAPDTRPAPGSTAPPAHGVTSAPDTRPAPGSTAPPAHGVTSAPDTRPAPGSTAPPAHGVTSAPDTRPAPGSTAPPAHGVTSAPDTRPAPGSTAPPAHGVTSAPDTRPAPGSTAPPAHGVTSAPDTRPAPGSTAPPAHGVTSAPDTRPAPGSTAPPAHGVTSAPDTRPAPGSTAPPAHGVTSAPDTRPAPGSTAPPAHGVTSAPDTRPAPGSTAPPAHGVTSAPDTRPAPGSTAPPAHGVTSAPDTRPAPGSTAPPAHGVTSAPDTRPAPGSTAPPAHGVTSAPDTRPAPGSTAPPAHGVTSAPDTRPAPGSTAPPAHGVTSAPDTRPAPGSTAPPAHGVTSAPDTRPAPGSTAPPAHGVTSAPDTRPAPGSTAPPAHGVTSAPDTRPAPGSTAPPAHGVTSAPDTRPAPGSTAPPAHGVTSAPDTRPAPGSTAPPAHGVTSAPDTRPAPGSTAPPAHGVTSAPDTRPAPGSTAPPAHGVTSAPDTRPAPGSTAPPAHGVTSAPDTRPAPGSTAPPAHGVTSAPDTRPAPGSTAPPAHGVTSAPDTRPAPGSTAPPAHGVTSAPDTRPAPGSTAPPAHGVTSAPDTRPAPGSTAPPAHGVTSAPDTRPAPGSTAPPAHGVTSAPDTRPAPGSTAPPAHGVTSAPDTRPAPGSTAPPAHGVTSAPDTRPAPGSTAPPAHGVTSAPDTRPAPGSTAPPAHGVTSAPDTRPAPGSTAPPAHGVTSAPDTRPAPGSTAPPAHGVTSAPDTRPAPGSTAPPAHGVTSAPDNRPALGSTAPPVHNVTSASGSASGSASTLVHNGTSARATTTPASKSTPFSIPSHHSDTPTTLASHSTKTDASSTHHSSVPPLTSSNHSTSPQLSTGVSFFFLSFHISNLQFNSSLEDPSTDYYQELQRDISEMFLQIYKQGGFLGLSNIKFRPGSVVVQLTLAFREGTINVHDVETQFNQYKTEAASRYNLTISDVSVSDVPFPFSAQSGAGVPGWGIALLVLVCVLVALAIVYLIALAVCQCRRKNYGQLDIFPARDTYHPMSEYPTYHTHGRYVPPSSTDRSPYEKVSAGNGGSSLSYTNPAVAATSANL
Procedure: Antigen binding (KCM lysate) to the 9 humanized antibody combinations and the chimeric parental antibody were evaluated by sandwich ELISA. For this, ELISA plates were coated with hybridoma antibody (1 μg/mL) overnight at 4° C. in the dark and then blocked with 2% BSA for 2 hours at room temperature to reduce non-specific binding. KCM lysate (10 μg/mL) was then added and incubated for 2 hours at room temperature. Antibodies were diluted in 5-fold increments for a total of seven data points and were added to the ELISA wells for 2 hours at room temperature. The plate was washed with PBS three times, and then incubated with HRP conjugated goat anti-human IgG antibody for 2 hours. The plate was washed three times with PBS. TMB, the HRP substrate, was added to each well for color development for 5 minutes at room temperature. Equal amount of 1N HC1 stop solution was added to each well to terminate the reaction.

[1] = physical properties of MSN materials (DLS, zeta-potential, TGA, TEM); assay type: physicochemical
Description: The MSN conjugates were characterized by dynamic light scattering (DLS), thermogravimetric analysis (TGA), and transmission electron microscopy (TEM). […] DLS results indicated slight aggregation. The surface charges were as expected during the different synthesis steps, with the final TAB-004-MSN neutral surface charge indicating successful functionalization of MSN. The PEG linker was quantified by TGA to be about 6-7% by weight.

B1: TAB-004-CpG ODN conjugate (conjugate)
VH: EVQLQQSGGERATPGASVKMSCKTSGYTFTNYWMHWVKQRPGQGLEWIGYINPSSGYTQYNQKFKDKATLTADKSSSTAYIQLSSLTSEDSAVYYCSTYYGDYLFPYWGQGTLVTVSA
VL: DVLMTQTPLSLPVSLGDQASISCRSSQDIVYGNGNTYLEWYLQKPGQSPKLLIYKVSNRFSGVPDRFSGSGSGTDFTLKISRVEAEDLGVYYCFQGSHVPYTFGGGTKLEIKR
binding to KCM cell line (KCM pancreatic cell line): bound to the KCM pancreatic cell line with equal affinity
growth of established tumor (KCM tumor; 50 μg intratumorally at days 4, 10, and 16): completely stopped the growth of an established tumor leading to complete eradication
tumor volumes at 19 and 27 days post-treatment (KCM tumor; compared to control mice): had not increased
tumor regrowth after cessation of treatment (KCM tumor; mouse, in vivo): did not grow back the tumors
specific lysis of tumor cells by NK cells (KCM tumor cells): further enhanced specific lysis of tumor cells

B2: Humanized HC3 + LC2: heavy chain H6247, light chain L6246 (antibody)
heavy: EVQLVQSGAEVKKPGASVKVSCKASGYTFTNYWMHWVRQAPGQGLEWMGYINPSSGYTQYNQKFQGWVTMTADTSISTAYMELSRLRSDDTAVYYCSTYYGDYLFPYWGQGTLVTVSSASTKGPSVFPLAPCSRSTSESTAALGCLVKDYFPEPVTVSWNSGALTSGVHTFPAVLQSSGLYSLSSVVTVPSSNFGTQTYTCNVDHKPSNTKVDKTVERKCCVECPPCPAPPVAGPSVFLFPPKPKDTLMISRTPEVTCVVVDVSHEDPEVQFNWYVDGVEVHNAKTKPREEQFNSTFRVVSVLTVVHQDWLNGKEYKCKVSNKGLPAPIEKTISKTKGQPREPQVYTLPPSREEMTKNQVSLTCLVKGFYPSDIAVEWESNGQPENNYKTTPPMLDSDGSFFLYSKLTVDKSRWQQGNVFSCSVMHEALHNHYTQKSLSLSPG
light: DVVMTQSPLSLPVTLGQPASISCRSSQDIVYGNGNTYLEWYQQRPGQSPRLLIYKVSNRFSGVPDRFSGSGSGTDFTLKISRVEAEDVGVYYCFQGSHVPYTFGQGTKLEIKRTVAAPSVFIFPPSDEQLKSGTASVVCLLNNFYPREAKVQWKVDNALQSGNSQESVTEQDSKDSTYSLSSTLTLSKADYEKHKVYACEVTHQGLSSPVTKSFNRGEC
binding by ELISA (KCM lysate): retained binding similar to the chimeric parental antibody

B3: Humanized HC3 + LC3: heavy chain H6247, light chain L6247 (antibody)
heavy: B2 heavy
light: B2 light with V2I, M4L, R66S, K79T, V90I, Q105E
binding by ELISA (KCM lysate): retained binding similar to the chimeric parental antibody

B4: TAB-004-MSN (conjugate)
VH: B1 VH
VL: B1 VL
PDI [1]: 0.35
Size (nm) ([1]; determined in 1 mM PBS, pH 7.4): 342.0 nm
Zeta-potential (mV) ([1]; determined in 1 mM PBS, pH 7.4): −5.6 ± 0.8 mV
